Source: US20210116443A1 (CREATIVE PROTEIN SOLUTIONS, published 2021)

Legend:
[1] = molecular target: T1, HIS-TreAC-EI: N-terminally HIS-tagged fragment of TreA with C-terminal fusion leucine zipper (Escherichia coli O9:H4 (strain HS), UniProt A7ZZD1 97-565); experiment: split trehalase complementation, non-complementary zippers Ei+Ei (FIG. 24A)
T1 sequence: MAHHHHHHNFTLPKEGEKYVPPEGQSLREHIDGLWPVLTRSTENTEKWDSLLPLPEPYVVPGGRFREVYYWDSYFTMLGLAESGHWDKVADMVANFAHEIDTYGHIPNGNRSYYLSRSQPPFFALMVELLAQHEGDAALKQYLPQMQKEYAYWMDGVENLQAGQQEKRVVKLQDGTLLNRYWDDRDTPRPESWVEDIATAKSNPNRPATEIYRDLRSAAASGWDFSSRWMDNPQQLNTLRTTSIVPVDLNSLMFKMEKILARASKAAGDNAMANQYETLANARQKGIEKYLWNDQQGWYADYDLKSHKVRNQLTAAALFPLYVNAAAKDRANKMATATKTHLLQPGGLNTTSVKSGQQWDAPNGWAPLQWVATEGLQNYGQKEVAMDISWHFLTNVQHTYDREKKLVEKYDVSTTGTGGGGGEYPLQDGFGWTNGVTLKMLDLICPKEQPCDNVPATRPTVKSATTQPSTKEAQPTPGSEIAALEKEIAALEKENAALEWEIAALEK

[2] = molecular target: T2, HIS-TreAC-KI: N-terminally HIS-tagged fragment of TreA with C-terminal fusion leucine zipper (Escherichia coli O9:H4 (strain HS), UniProt A7ZZD1 97-565); experiment: cell-based or functional assay
T2 sequence: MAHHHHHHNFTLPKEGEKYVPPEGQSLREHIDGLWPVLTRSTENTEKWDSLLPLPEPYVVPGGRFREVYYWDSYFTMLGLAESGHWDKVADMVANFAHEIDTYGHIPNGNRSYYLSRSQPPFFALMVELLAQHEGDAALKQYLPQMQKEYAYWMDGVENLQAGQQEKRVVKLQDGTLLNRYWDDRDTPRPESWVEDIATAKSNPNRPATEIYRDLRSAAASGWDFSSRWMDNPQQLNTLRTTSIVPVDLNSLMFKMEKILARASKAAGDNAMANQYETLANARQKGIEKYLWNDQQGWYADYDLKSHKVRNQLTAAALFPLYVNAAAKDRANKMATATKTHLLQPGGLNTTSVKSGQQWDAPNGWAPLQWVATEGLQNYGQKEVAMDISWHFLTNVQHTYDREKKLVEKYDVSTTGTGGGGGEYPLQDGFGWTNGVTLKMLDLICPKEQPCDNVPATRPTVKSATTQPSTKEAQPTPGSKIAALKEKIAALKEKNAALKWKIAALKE

[3] = molecular target: T2, HIS-TreAC-KI: N-terminally HIS-tagged …; experiment: split trehalase complementation, non-complementary zippers Ki+Ki (FIG. 24A)
[4] = molecular target: T3, TreAC-HIS: C-terminally HIS-tagged C-terminal fragment of TreA (Escherichia coli O9:H4 (strain HS), UniProt A7ZZD1 96-565); experiment: split trehalase complementation, 24 h with trehalose, Benedict's reagent (FIG. 7)
T3 construct: Split E. coli trehalase fragment; also called HIS-tagged TreA^C
T3 sequence: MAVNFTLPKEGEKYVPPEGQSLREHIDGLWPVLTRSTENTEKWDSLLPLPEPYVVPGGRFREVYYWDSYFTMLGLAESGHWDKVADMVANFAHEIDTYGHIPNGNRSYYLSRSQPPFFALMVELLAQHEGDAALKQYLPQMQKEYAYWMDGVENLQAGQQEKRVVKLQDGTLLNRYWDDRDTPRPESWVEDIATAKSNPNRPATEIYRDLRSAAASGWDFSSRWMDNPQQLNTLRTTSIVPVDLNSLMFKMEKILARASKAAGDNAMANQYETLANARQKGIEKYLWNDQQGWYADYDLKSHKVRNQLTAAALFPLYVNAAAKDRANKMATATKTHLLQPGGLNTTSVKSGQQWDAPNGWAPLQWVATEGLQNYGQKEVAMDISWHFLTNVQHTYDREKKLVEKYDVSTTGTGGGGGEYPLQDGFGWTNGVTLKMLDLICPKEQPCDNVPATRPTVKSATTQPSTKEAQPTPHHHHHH

[5] = molecular target: T4, HIS-TreAC: N-terminally HIS-tagged C-terminal fragment of TreA (Escherichia coli O9:H4 (strain HS), UniProt A7ZZD1 97-565); experiment: as above
T4 construct: Split E. coli trehalase fragment; also called HIS-tagged TreA^C
T4 sequence: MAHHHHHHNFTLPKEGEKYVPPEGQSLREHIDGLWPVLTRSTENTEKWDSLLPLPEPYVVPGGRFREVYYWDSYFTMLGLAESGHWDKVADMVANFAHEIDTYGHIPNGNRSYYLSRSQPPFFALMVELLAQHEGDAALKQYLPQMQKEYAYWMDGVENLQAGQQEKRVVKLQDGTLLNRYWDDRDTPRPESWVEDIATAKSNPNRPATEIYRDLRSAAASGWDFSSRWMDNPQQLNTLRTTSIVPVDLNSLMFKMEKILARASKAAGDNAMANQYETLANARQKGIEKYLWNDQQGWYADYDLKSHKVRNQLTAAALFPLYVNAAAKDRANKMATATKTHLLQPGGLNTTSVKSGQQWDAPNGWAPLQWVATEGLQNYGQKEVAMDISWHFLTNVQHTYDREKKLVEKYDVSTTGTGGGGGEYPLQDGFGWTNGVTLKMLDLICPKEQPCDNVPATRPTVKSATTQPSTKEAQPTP

[6] = molecular target: HIS-TreA^N-bCalm: N-terminally HIS-tagged N-terminal fragment of TreA^N with C-terminal fusion of bovine …; experiment: split trehalase complementation with Ca2+, glucose read-out

B1: HIS-TreAN-EI: N-terminally HIS-tagged N-terminal fragment of TreA with C-terminal fusion with leucine zipper (other)
chain: MAHHHHHHEETPVTPQPPDILLGPLFNDVQNAKLFPDQKTFADAVPNSDPLMILADYRMQQNQSGFDLRHFVNVNFTLPKEGEKYVPGSVPGSEIAALEKEIAALEKENAALEWEIAALEK
- binding result [1]: no binding
- glucose signal over 3 h, lyophilized fusions resuspended in acidified bovine blood or milk (glucose strips) [2]: 2 fold

B2: HIS-TreAN-KI: N-terminally HIS-tagged N-terminal fragment of TreA with C-terminal fusion with leucine zipper (other)
chain: MAHHHHHHEETPVTPQPPDILLGPLFNDVQNAKLFPDQKTFADAVPNSDPLMILADYRMQQNQSGFDLRHFVNVNFTLPKEGEKYVPGSVPGSKIAALKEKIAALKEKNAALKWKIAALKE
- binding result [3]: no binding

B3: TreAN-HIS: C-terminally HIS-tagged N-terminal fragment of TreA (w/o signal peptide) (other)
chain: MEETPVTPQPPDILLGPLFNDVQNAKLFPDQKTFADAVPNSDPLMILADYRMQQNQSGFDLRHFVNVNFTLPKEGEKYVPHHHHHH
notes: Split E. coli trehalase fragment; also called HIS-tagged TreA^N
- binding result [4]: no binding
- binding result [5]: no binding

B4: CaMKIIp-TreA^C-HIS: CaMKII peptide N-terminally fused to the C-terminally HIS-tagged C-terminal fragment of TreA (other)
chain: MARRKLKGAILTTMLATRNFVDNFTLPKEGEKYVPPEGQSLREHIDGLWPVLTRSTENTEKWDSLLPLPEPYVVPGGRFREVYYWDSYFTMLGLAESGHWDKVADMVANFAHEIDTYGHIPNGNRSYYLSRSQPPFFALMVELLAQHEGDAALKQYLPQMQKEYAYWMDGVENLQAGQQEKRVVKLQDGTLLNRYWDDRDTPRPESWVEDIATAKSNPNRPATEIYRDLRSAAASGWDFSSRWMDNPQQLNTLRTTSIVPVDLNSLMFKMEKILARASKAAGDNAMANQYETLANARQKGIEKYLWNDQQGWYADYDLKSHKVRNQLTAAALFPLYVNAAAKDRANKMATATKTHLLQPGGLNTTSVKSGQQWDAPNGWAPLQWVATEGLQNYGQKEVAMDISWHFLTNVQHTYDREKKLVEKYDVSTTGTGGGGGEYPLQDGFGWTNGVTLKMLDLICPKEQPCDNVPATRPTVKSATTQPSTKEAQPTPHHHHHH
notes: also called MaMKII peptide fused to C-terminal fragment of TreA
- binding result [6]: binds
